Reference: PMC8102066 (eLife, 2021)
Changes are numbered by the printed parent chain. Numbers in names are those of the source. Where “and” joins values, the source holds several entries; their conditions need not be identical. Identical values can stand only once.

Tests used:
mGluR2 = mGluR2 (Rattus norvegicus, UniProt P31421); test: Inter-LBD FRET (N-terminal SNAP-tags), live cells; settings: SNAP-mGluR2
mGluR2-3xTM4 = mGluR2-3xTM4 (Rattus norvegicus, UniProt P31421, A677S/A681F/A685G); test: Inter-LBD FRET (N-terminal SNAP-tags), live cells; settings: SNAP-mGluR2-3xTM4
Sequence of mGluR2-3xTM4 (P31421 19-872 A677S/A681F/A685G): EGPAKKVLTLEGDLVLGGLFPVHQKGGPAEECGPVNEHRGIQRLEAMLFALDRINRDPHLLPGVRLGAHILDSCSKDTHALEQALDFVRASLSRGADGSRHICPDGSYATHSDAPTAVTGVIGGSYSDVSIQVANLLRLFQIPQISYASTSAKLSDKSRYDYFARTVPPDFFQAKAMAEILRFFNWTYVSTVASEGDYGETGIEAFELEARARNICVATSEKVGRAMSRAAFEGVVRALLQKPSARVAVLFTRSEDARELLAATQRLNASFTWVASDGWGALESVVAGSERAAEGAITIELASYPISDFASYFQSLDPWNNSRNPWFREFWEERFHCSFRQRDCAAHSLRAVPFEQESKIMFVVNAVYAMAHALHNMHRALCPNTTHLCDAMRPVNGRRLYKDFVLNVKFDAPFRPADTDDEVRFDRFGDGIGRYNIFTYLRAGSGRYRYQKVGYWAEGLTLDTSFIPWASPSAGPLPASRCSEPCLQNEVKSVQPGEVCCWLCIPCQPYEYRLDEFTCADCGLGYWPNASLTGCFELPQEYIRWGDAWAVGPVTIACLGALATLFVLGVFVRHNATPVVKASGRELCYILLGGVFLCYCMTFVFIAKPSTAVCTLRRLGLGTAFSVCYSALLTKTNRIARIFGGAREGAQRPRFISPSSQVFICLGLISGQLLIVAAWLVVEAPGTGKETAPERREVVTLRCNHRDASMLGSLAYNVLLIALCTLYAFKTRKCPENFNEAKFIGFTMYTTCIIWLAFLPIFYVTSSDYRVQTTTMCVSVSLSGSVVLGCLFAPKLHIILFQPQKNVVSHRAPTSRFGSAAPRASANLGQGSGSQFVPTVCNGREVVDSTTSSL

mGluR3 = mGluR3 (Rattus norvegicus, UniProt P31422); test: Inter-LBD FRET (N-terminal SNAP-tags), live cells; settings: SNAP-mGluR3
[1] = tested on: SNAP-tagged mGluR2 and mGluR3 constructs; test: Surface expression measurements; type: cell-based, rat; settings: construct; single measurements
Excerpt: ImageJ was used to analyze fluorescence intensity of cell clusters. […] Fluorescence intensity values for each construct were normalized to wild-type values for comparison.

B1: SNAP-mGluR2 (protein)
chain: EGPAKKVLTLEGDLVLGGLFPVHQKGGPAEECGPVNEHRGIQRLEAMLFALDRINRDPHLLPGVRLGAHILDSCSKDTHALEQALDFVRASLSRGADGSRHICPDGSYATHSDAPTAVTGVIGGSYSDVSIQVANLLRLFQIPQISYASTSAKLSDKSRYDYFARTVPPDFFQAKAMAEILRFFNWTYVSTVASEGDYGETGIEAFELEARARNICVATSEKVGRAMSRAAFEGVVRALLQKPSARVAVLFTRSEDARELLAATQRLNASFTWVASDGWGALESVVAGSERAAEGAITIELASYPISDFASYFQSLDPWNNSRNPWFREFWEERFHCSFRQRDCAAHSLRAVPFEQESKIMFVVNAVYAMAHALHNMHRALCPNTTHLCDAMRPVNGRRLYKDFVLNVKFDAPFRPADTDDEVRFDRFGDGIGRYNIFTYLRAGSGRYRYQKVGYWAEGLTLDTSFIPWASPSAGPLPASRCSEPCLQNEVKSVQPGEVCCWLCIPCQPYEYRLDEFTCADCGLGYWPNASLTGCFELPQEYIRWGDAWAVGPVTIACLGALATLFVLGVFVRHNATPVVKASGRELCYILLGGVFLCYCMTFVFIAKPSTAVCTLRRLGLGTAFSVCYSALLTKTNRIARIFGGAREGAQRPRFISPASQVAICLALISGQLLIVAAWLVVEAPGTGKETAPERREVVTLRCNHRDASMLGSLAYNVLLIALCTLYAFKTRKCPENFNEAKFIGFTMYTTCIIWLAFLPIFYVTSSDYRVQTTTMCVSVSLSGSVVLGCLFAPKLHIILFQPQKNVVSHRAPTSRFGSAAPRASANLGQGSGSQFVPTVCNGREVVDSTTSSL
modifications: SNAP tag labelled with BG-LD555 (BG-LD655 in two-colour SiMPull); left off: HA, N-terminal, kept | SNAP, N-terminal, kept
With B1 the “Basal LBD FRET (%)” value (mGluR2) was 0%.

B2: SNAP-mGluR2-3xTM4 (protein)
chain: B1 chain with A659S, A663F, A667G
modifications: SNAP tag labelled with BG-LD555; left off: HA, N-terminal, kept | SNAP, N-terminal, kept
With B2 the “Basal LBD FRET (%)” value (mGluR2-3xTM4) was 0%.

B3: SNAP-mGluR3 (protein)
chain: LGDHNFMRREIKIEGDLVLGGLFPINEKGTGTEECGRINEDRGIQRLEAMLFAIDEINKDNYLLPGVKLGVHILDTCSRDTYALEQSLEFVRASLTKVDEAEYMCPDGSYAIQENIPLLIAGVIGGSYSSVSIQVANLLRLFQIPQISYASTSAKLSDKSRYDYFARTVPPDFYQAKAMAEILRFFNWTYVSTVASEGDYGETGIEAFEQEARLRNICIATAEKVGRSNIRKSYDSVIRELLQKPNARVVVLFMRSDDSRELIAAANRVNASFTWVASDGWGAQESIVKGSEHVAYGAITLELASHPVRQFDRYFQSLNPYNNHRNPWFRDFWEQKFQCSLQNKRNHRQVCDKHLAIDSSNYEQESKIMFVVNAVYAMAHALHKMQRTLCPNTTKLCDAMKILDGKKLYKEYLLKINFTAPFNPNKGADSIVKFDTFGDGMGRYNVFNLQQTGGKYSYLKVGHWAETLSLDVDSIHWSRNSVPTSQCSDPCAPNEMKNMQPGDVCCWICIPCEPYEYLVDEFTCMDCGPGQWPTADLSGCYNLPEDYIKWEDAWAIGPVTIACLGFLCTCIVITVFIKHNNTPLVKASGRELCYILLFGVSLSYCMTFFFIAKPSPVICALRRLGLGTSFAICYSALLTKTNCIARIFDGVKNGAQRPKFISPSSQVFICLGLILVQIVMVSVWLILETPGTRRYTLPEKRETVILKCNVKDSSMLISLTYDVVLVILCTVYAFKTRKCPENFNEAKFIGFTMYTTCIIWLAFLPIFYVTSSDYRVQTTTMCISVSLSGFVVLGCLFAPKVHIVLFQPQKNVVTHRLHLNRFSVSGTATTYSQSSASTYVPTVCNGREVLDSTTSSL
modifications: SNAP tag labelled with BG-LD555 (BG-LD655 in two-colour SiMPull); left off: HA, N-terminal, kept | SNAP, N-terminal, kept
For B3, the “Basal LBD FRET (%)” value (mGluR3) was 20% and 30% and 23% and 24%.

B4: SNAP-mGluR3-I788A (protein, UniProt Q14832 23-879, looked up, variant I788A)
Metabotropic glutamate …: LGDHNFLRREIKIEGDLVLGGLFPINEKGTGTEECGRINEDRGIQRLEAMLFAIDEINKDDYLLPGVKLGVHILDTCSRDTYALEQSLEFVRASLTKVDEAEYMCPDGSYAIQENIPLLIAGVIGGSYSSVSIQVANLLRLFQIPQISYASTSAKLSDKSRYDYFARTVPPDFYQAKAMAEILRFFNWTYVSTVASEGDYGETGIEAFEQEARLRNICIATAEKVGRSNIRKSYDSVIRELLQKPNARVVVLFMRSDDSRELIAAASRANASFTWVASDGWGAQESIIKGSEHVAYGAITLELASQPVRQFDRYFQSLNPYNNHRNPWFRDFWEQKFQCSLQNKRNHRRVCDKHLAIDSSNYEQESKIMFVVNAVYAMAHALHKMQRTLCPNTTKLCDAMKILDGKKLYKDYLLKINFTAPFNPNKDADSIVKFDTFGDGMGRYNVFNFQNVGGKYSYLKVGHWAETLSLDVNSIHWSRNSVPTSQCSDPCAPNEMKNMQPGDVCCWICIPCEPYEYLADEFTCMDCGSGQWPTADLTGCYDLPEDYIRWEDAWAIGPVTIACLGFMCTCMVVTVFIKHNNTPLVKASGRELCYILLFGVGLSYCMTFFFIAKPSPVICALRRLGLGSSFAICYSALLTKTNCIARIFDGVKNGAQRPKFISPSSQVFICLGLILVQIVMVSVWLILEAPGTRRYTLAEKRETVILKCNVKDSSMLISLTYDVILVILCTVYAFKTRKCPENFNEAKFIGFTMYTTCIIWLAFLPAFYVTSSDYRVQTTTMCISVSLSGFVVLGCLFAPKVHIILFQPQKNVVTHRLHLNRFSVSGTGTTYSQSSASTYVPTVCNGREVLDSTTSSL
modifications: N-terminal SNAP tag
B4 was tested, and the “Surface Expression” value [1] was 1.08 and 0.88 and 0.76 and 0.68 and 0.70 and 0.97 and 0.75.

B5: SNAP-mGluR3-C127A-I788A (protein)
chain: B3 chain with C105A, I766A
modifications: SNAP tag labelled with BG-LD555; left off: HA, N-terminal, kept | SNAP, N-terminal, kept
For B5, the “Surface Expression” value [1] was 1.29 and 0.91 and 1.30 and 0.67 and 0.74 and 0.86 and 1.22 and 0.70.
